From publication PMC6687821, “Brain-targeted drug delivery by manipulating protein corona functions” (Nature Communications, 2019)

Target: T1, mouse plasma ApoE (mouse (endogenous in BALB/c plasma), UniProt P08226 19-311)
T1 construct: apolipoprotein E, mouse, band of 36 kDa identified by nano-LC-MS/MS; also called apolipoprotein E; source: endogenous, BALB/c mouse plasma (in vitro) or blood of injected BALB/c mice (in vivo)
T1 sequence (looked up): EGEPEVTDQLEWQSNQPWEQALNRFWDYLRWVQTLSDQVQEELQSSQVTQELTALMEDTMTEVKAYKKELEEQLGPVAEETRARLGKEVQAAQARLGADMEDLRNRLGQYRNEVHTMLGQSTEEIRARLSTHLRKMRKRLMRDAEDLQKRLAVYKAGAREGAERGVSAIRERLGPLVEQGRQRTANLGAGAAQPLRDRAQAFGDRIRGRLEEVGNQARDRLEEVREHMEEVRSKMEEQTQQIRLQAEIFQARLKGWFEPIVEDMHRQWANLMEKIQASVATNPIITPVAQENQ
Assay: radioligand binding; SP-sLip (100 μL, 10 mg/mL) with mouse plasma (100 μL) at 37 °C for 1 h, then I-125 rhLRP1 (6 μCi, 0.5 μg) for 1 h at 37 °C; pellet at 19k RCF 30 min, three washes with cold PBS, gamma counter; plain sLip as control
Settings: one partner purified

fold of rhLRP1 absorbed on SP-sLip over plain sLip, after preincubation with mouse plasma: 8.4 fold
B1: I-125 radiolabeled recombinant human LRP1 Cluster II Fc Chimera, Human IgG1 (Fc fusion, UniProt Q07954 852-1182, looked up)
chain: PQCQPGEFACANSRCIQERWKCDGDNDCLDNSDEAPALCHQHTCPSDRFKCENNRCIPNRWLCDGDNDCGNSEDESNATCSARTCPPNQFSCASGRCIPISWTCDLDDDCGDRSDESASCAYPTCFPLTQFTCNNGRCININWRCDNDNDCGDNSDEAGCSHSCSSTQFKCNSGRCIPEHWTCDGDNDCGDYSDETHANCTNQATRPPGGCHTDEFQCRLDGLCIPLRWRCDGDTDCMDSSDEKSCEGVTHVCDPSVKFGCKDSARCISKAWVCDGDNDCEDNSDEENCESLACRPPSHPCANNTSVCLPPDKLCDGNDDCGDGSDEGELC
modifications: I-125 radiolabel (residues not stated)
notes: Same bought protein as m6, radiolabeled; the labelling method is not described; also called I^125 radiolabeled rhLRP1; radiolabeled rhLRP1; source: bought: R&D system, then I-125 radiolabeled
